Experimental data: patent CN108264558A (SHANGHAI NOVOPROTEIN BIOTECHNOLOGY CO LTD, dated 2018)

What was measured:
Test in all cases: ELISA, target coated at 1 μg/ml, TsM titrated from 10 μg/ml
CD19-CD3-4-1BBL TsM_M = target: T1, CD19-CD3-4-1BBL TsM_M
T1 construct: monomer confirmed by SDS-PAGE and mass spectrometry; also called 单体形式的抗CD19/抗CD3/4-1BBL三特异性分子; 单体形式的TiTE三特异分子

CD19-CD3-CD70 TsM_D = target: T2, CD19-CD3-CD70 TsM_D
T2 construct: Disulfide-linked, glycosylated dimer; also called 二聚体形式的抗CD19/抗CD3/CD70三特异性分子

CD19-CD3-4-1BBL TsM_D = target: T3, CD19-CD3-4-1BBL TsM_D
T3 construct: Two chains joined by disulfide bonds of the IgD hinge (dimer by non-reducing SDS-PAGE and mass spectrometry); also called 二聚体形式的抗CD19/抗CD3/4-1BBL三特异性分子; 二聚体形式的TiTE三特异分子

CD19-CD3-B7RP-1 TsM_M = target: T4, CD19-CD3-B7RP-1 TsM_M
T4 construct: CHO-S expressed, N-glycosylated monomer; also called 单体形式的抗CD19/抗CD3/B7RP-1三特异性分子

CD19-CD3-B7RP-1 TsM_D = target: T5, CD19-CD3-B7RP-1 TsM_D
T5 construct: Disulfide-linked, glycosylated dimer; also called 二聚体形式的抗CD19/抗CD3/B7RP-1三特异性分子

CD19-CD3-OX40L TsM_M = target: T6, CD19-CD3-OX40L TsM_M
T6 construct: CHO-S expressed, N-glycosylated monomer; also called 单体形式的抗CD19/抗CD3/OX40L三特异性分子

CD19-CD3-OX40L TsM_D = target: T7, CD19-CD3-OX40L TsM_D
T7 construct: Disulfide-linked, glycosylated dimer; also called 二聚体形式的抗CD19/抗CD3/OX40L三特异性分子

CD19-CD3-GITRL TsM_M = target: T8, CD19-CD3-GITRL TsM_M
T8 construct: CHO-S expressed, N-glycosylated monomer; also called 单体形式的抗CD19/抗CD3/GITRL三特异性分子

CD19-CD3-GITRL TsM_D = target: T9, CD19-CD3-GITRL TsM_D
T9 construct: Disulfide-linked, glycosylated dimer; also called 二聚体形式的抗CD19/抗CD3/GITRL三特异性分子

CD19-CD3-CD70 TsM_M = target: T10, CD19-CD3-CD70 TsM_M
T10 construct: CHO-S expressed, N-glycosylated monomer; also called 单体形式的抗CD19/抗CD3/CD70三特异性分子

Measured: binding result

B1: 人类CD19-hFc融合蛋白 (Fc fusion, human, UniProt P15391 20-291, looked up)
chain: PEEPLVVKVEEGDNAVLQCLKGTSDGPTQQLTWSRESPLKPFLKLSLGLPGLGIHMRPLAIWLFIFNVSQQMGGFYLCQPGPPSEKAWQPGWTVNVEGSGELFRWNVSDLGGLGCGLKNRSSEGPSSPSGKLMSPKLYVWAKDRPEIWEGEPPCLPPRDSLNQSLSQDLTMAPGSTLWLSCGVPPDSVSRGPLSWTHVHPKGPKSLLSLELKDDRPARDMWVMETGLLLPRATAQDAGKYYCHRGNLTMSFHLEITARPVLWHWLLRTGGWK
notes: Bought from 吴江近岸蛋白质科技有限公司; Coated at 1 μg/ml in ELISA; also called 重组抗原CD19-hFc; 抗原CD19-hFc; not shown: human Fc (hFc)
binds: all assays above

B2: 人类ICOS-hFc融合蛋白 (Fc fusion)
chain: EINGSANYEMFIFHNGGVQILCKYPDIVQQFKMQLLKGGQILCDLTKTKGSGNTVSIKSLKFCHSQLSNNSVSFFLYNLDHSHANYYFCNLSIFDPPPFKVTLTGGYLHIYESQLCCQLK
notes: Bought from 吴江近岸蛋白质科技有限公司; also called 重组蛋白ICOS-hFc; T细胞正共刺激分子ICOS-hFc; not shown: human Fc (hFc)
binds: CD19-CD3-B7RP-1 TsM_M | CD19-CD3-B7RP-1 TsM_D

B3: 人类GITR-hFc融合蛋白 (Fc fusion)
chain: QRPTGGPGCGPGRLLLGTGTDARCCRVHTTRCCRDYPGEECCSEWDCMCVQPEFHCGDPCCTTCRHHPCPPGQGVQSQGKFSFGFQCIDCASGTFSGGHEGHCKPWTDCTQFGFLTVFPGNKTHNAVCVPGSPPAE
notes: Bought from 吴江近岸蛋白质科技有限公司; also called 重组蛋白GITR-hFc; T细胞正共刺激分子GITR-hFc; not shown: human Fc (hFc)
binds: CD19-CD3-GITRL TsM_M | CD19-CD3-GITRL TsM_D
